# Measured values from patent US20230279125A1 (published 2023).
# T1: extracellular domain of human IL28RA (human, UniProt Q8IU57 21-228)
# T1 construct: Plates were 'coated with IL28RA'; also called hIL28RA ECD antigen; hIL28RA
# T1 sequence: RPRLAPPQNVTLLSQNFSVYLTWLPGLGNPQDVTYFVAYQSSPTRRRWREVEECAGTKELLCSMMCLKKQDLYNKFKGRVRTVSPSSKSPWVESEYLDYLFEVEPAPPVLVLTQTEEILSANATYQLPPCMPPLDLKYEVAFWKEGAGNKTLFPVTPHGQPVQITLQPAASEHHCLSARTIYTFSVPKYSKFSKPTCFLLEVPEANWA
# Biological target: T1, extracellular domain of human IL28RA
# Experiment: periplasmic extract ELISA on IL28RA-coated plates, A450 at least threefold over PBS-coated control
# Protocol: Upon completion of the biopanning of Example 3, three 96-well plates of individual phage clones were isolated in order to perform periplasmic extract ELISA (PE-ELISA) on IL28RA coated plates to identify positive VHH binders that selectively bound IL28RA . A 96-well plate was coated with IL28RA and PBS under the same conditions. Next, wells were blocked at 37° C. for 1 h. Then, 100 µl of extracted antibodies was added to each well and incubated for 1 h. Subsequently, 100 µl of anti-tag polyclonal antibody conjugated to HRP was added to each well and incubated at 37° C. for 1 h. Plates were developed with TMB substrate. The reaction was stopped by the addition of H2SO4. Absorbance at 450 nm was read on a microtiter plate reader. […] Positive clones were sequenced, and sequences analyzed to identify unique clonotypes
row,Binder,binding result
1,"hIL28RA VHH14 (VHH, not shown: large carriers, Camel VHH tested as periplasmic extract of a phage clone (PE-ELISA); also called anti-human IL28RA VHH) VHH: QVQLQESGGGSVQAGGSLRLSCASSGYISRSSYCMGWFRQAPGKEREVAAIVTGDGRTYYGDSVKGRFAISRDNAKNTLYLQMNSLKPEDTAMYYCVAGPPPCITTMPAGGDYGYRYWGRGTQVTVSS",binds
2,"hIL28RA VHH7 (VHH, not shown: large carriers, Camel VHH tested as periplasmic extract of a phage clone (PE-ELISA); also called anti-human IL28RA VHH) VHH: QVQLQESGGGLVQPGGSLRLSCAASGFTFSNYGMSWVRQAPGKGLEWVSGINSGGDDTFYTDSVKGRFTISRDNAKNTLYLQMNSLKTEDTAMYYCAMGASGMIPRGQGTQVTVSS",binds
3,"hIL28RA VHH2 (VHH, not shown: large carriers, Camel VHH tested as periplasmic extract of a phage clone (PE-ELISA); also called anti-human IL28RA VHH) VHH: QVQLQESGGGLVQPGGSLRLSCAASGFTFSNYGMSWVRQAPGKGLEWVSGINSGGDDTFYTDSVKGRFTISRDNAKNTLYLQMNSLKTEDTAMYYCAMGASGMIPRGQGTQITVSS",binds
4,"hIL28RA VHH9 (VHH, not shown: large carriers, Camel VHH tested as periplasmic extract of a phage clone (PE-ELISA); also called anti-human IL28RA VHH) VHH: QVQLQESGGGLVQPGGSLRLSCAASGFTFSNYGMSWVRQAPGKGLEWVSGINSGGDDTFYTDSVKGRFTISRDNVKNTLYLQMNSLKTEDTAMYYCAMGASGMIPRGQGTQVTVSS",binds
5,"hIL28RA VHH10 (VHH, not shown: large carriers, Camel VHH tested as periplasmic extract of a phage clone (PE-ELISA); also called anti-human IL28RA VHH) VHH: QVQLQESGGGSVQAGGSLRLSCASSGYISSRSTYCMGWFRQAPGKEREVAAVVTGDSRTYYGDSVKGRFAISRDNAKNTLYLQMNSLKPEDTAMYYCAAGPPPCITTMPAGGDYGYRYWGQGTQVTVSS",binds
6,"hIL28RA VHH12 (VHH, not shown: large carriers, Camel VHH tested as periplasmic extract of a phage clone (PE-ELISA); also called anti-human IL28RA VHH) VHH: QVQLQESGGGSVQAGGSLRLSCASSGYISSRSTYCMGWFRQAPGKEREVAAIVTGDSRTYYGDSVRGRFAISRDNAKNTLYLQMNSLKPEDTAMYYCAAGPPPCITSMPAGGDYGYRYWGQGTQVTVSS",binds
7,"hIL28RA VHH3 (VHH, not shown: large carriers, Camel VHH tested as periplasmic extract of a phage clone (PE-ELISA); also called anti-human IL28RA VHH) VHH: QVQLQESGGGLVQPGGSLRLSCVASGFTFSDYAMSWVRQAPGMGLERVSAIGRDGSTFYPDSVKGRFTISRDNAKNTLYLQLNSLKTEDTAMYYCAKEEPGSSSRGQGTQVTVSS",binds
8,"hIL28RA VHH6 (VHH, not shown: large carriers, Camel VHH tested as periplasmic extract of a phage clone (PE-ELISA); also called anti-human IL28RA VHH) VHH: QVQLQESGGGLVQPGGSLRLSCAASGFTFSDYAMSWVRQAPGMGLERVSAIGRDGSTFYPDSVKGRFTISRDNAKNTLYLQLNSLKTEDTAMYYCAKEEPGSSSRGQGTQVTVSS",binds
9,"hIL28RA VHH8 (VHH, not shown: large carriers, Camel VHH tested as periplasmic extract of a phage clone (PE-ELISA); also called anti-human IL28RA VHH) VHH: QVQLQESGGGSVQAGGSLRLSCAVSRYTISRSDCMGWFRQAPGKEREGVARIGSDGTTSYADSVKERFTISKDNAKNILYLQMNSLKPEDTARYYCAATALLLGRGSACHKEVSVFSWWGQGTQVTVSS",binds
10,"hIL28RA VHH11 (VHH, not shown: large carriers, Camel VHH tested as periplasmic extract of a phage clone (PE-ELISA); also called anti-human IL28RA VHH) VHH: QVQLQESGGGSVQSGGSLRLSCAASGFTYSSYCMGWFRQAPGKEREGVAAIDSDGSTSYADSVKGRFTISKDNAKNTLYLQMNSLRPEDTAMYYCAADGEYNDYVCWSTGLRYRGQGTQVTVSS",binds
11,"hIL28RA VHH5 (VHH, not shown: large carriers, Camel VHH tested as periplasmic extract of a phage clone (PE-ELISA); also called anti-human IL28RA VHH) VHH: QVQLQESGGGLVQPGGSLRLSCAASGFTFSNATMSWVRQAPGKEIEWVSAISNSRGTKYYAAFVKGRFTISRDNAKNTLYLQLNNLKTEDTAMYYCTKDWKTSYSDYDLSDGQGTQVTVSS",binds
12,"hIL28RA VHH13 (VHH, not shown: large carriers, Camel VHH tested as periplasmic extract of a phage clone (PE-ELISA); also called anti-human IL28RA VHH) VHH: QVQLQESGGGLVQPGSSLRLSCAASGFTFSNATMSWVRQAPGKEIEWVSAISNSRGTKYYAAFVKGRFTISRDNAKNTLYLQLNNLKTEDTAMYYCTKDWKTSYSDYDLSDGQGTQVTVSS",binds
13,"hIL28RA VHH4 (VHH, not shown: large carriers, Camel VHH tested as periplasmic extract of a phage clone (PE-ELISA); also called anti-human IL28RA VHH) VHH: QVQLQESGGGSVQLGGSLRLSCLVSGSTDNIKYMGWFRQAPGKEREGVAAVYTSGGAVVYADSVKGRFTISQDDAKNTMYLQMNSLKPEDTAMYYCAASRAPAPPRLLLQRALVEYWGQGTQVTVSS",binds
14,"hIL28RA VHH1 (VHH, not shown: large carriers, Camel VHH tested as periplasmic extract of a phage clone (PE-ELISA); also called anti-human IL28RA VHH) VHH: QVQLQESGGGSVQAGGSLRLSCASSGYISSSYCMAWFRQAPGKEREGAAGVTRDGKTYYGDSVKGRFAISRDNAKNTLYLQMNSLKPEDTAMYYCAAGPPPCITSMPAGGDYGYRYWGQGTQVTVSS",binds
